Measured values published in patent US20240018502A1.
Residue numbers refer to the chain shown, from its start. Names may count otherwise.

B1: MTSP-1 protease domain I41G/F97E/F99L/C122S/Q192A (enzyme)
chain: VVGGTDADEGEWPWQVSLHALGQGHGCGASLISPNWLVSAAHCYIDDRGFRYSDPTQWTAFLGLHDQSQRSAPGVQERRLKRIISHPFFNDETLDYDIALLELEKPAEYSSMVRPISLPDASHVFPAGKAIWVTGWGHTQYGGTGALILQKGEIRVINQTTCENLLPQQITPRMMCVGFLSGGVDSCAGDSGGPLSSVEADGRIFQAGVVSWGDGCAQRNKPGVYTRLPLFRDWIKENTGV
B2: MTSP-1 protease domain I41L/N95D/D96T/F97W/F99L/C122S/Q192A (enzyme)
chain: B1 chain with G26L, N90D, D91T, E92W
B3: MTSP-1 protease domain I41A/Y60gW/N95D/D96F/F97G/F99L/C122S/Q175H/Q192A (enzyme)
chain: B1 chain with G26A, Y52W, N90D, D91F, E92G, Q169H
B4: MTSP-1 protease domain I41S/F99L/C122S/G151N/Q175M/Q192G/D217V (enzyme)
chain: B1 chain with G26S, E92F, G145N, Q169M, A188G, D214V
B5: MTSP-1 protease domain I41S/F97S/F99L/C122S/G151N/Q175L/Q192A/D217L (enzyme)
chain: B1 chain with G26S, E92S, G145N, Q169L, D214L
B6: MTSP-1 protease domain I41S/T98S/F99L/C122S/Q192A (enzyme)
chain: B1 chain with G26S, E92F, T93S
B7: MTSP-1 protease domain I41A/Y60gW/F99L/C122S/Q175T/Q192A (enzyme)
chain: B1 chain with G26A, Y52W, E92F, Q169T
B8: MTSP-1 protease domain I41A/F97W/T98S/F99L/C122S/Q192A (enzyme)
chain: B1 chain with G26A, E92W, T93S
B9: MTSP-1 protease domain I41S/F97L/F99L/C122S/G151N/Q192G/D217V (enzyme)
chain: B1 chain with G26S, E92L, G145N, A188G, D214V
B10: MTSP-1 protease domain I41T/Y60gL/N95D/D96F/F97S/F99L/C122S/Q175S/Q192A (enzyme)
chain: B1 chain with G26T, Y52L, N90D, D91F, E92S, Q169S
B11: MTSP-1 protease domain I41G/F97L/F99L/C122S/Q192S (enzyme)
chain: B1 chain with E92L, A188S
B12: MTSP-1 protease domain I41S/F97Q/F99L/C122S/Q192S (enzyme)
chain: B1 chain with G26S, E92Q, A188S
B13: MTSP-1 Q38H/I41S/D60bT/F60eS/Y60gW/D96K/F97G/ins97aV/T98P/C122S/G151H/Q175L/Q192D (enzyme)
chain: VVGGTDADEGEWPWQVSLHALGHGHSCGASLISPNWLVSAAHCYIDTRGSRWSDPTQWTAFLGLHDQSQRSAPGVQERRLKRIISHPFFNKGVPFDYDIALLELEKPAEYSSMVRPISLPDASHVFPAGKAIWVTGWGHTQYGGTHALILQKGEIRVINQTTCENLLPQLITPRMMCVGFLSGGVDSCDGDSGGPLSSVEADGRIFQAGVVSWGDGCAQRNKPGVYTRLPLFRDWIKENTGV
B14: MTSP-1 Q38H/I41S/D60bT/F60eS/Y60gW/D96K/F97G/ins97aV/T98P/F99L/C122S/G151H/Q192D (enzyme)
chain: B13 chain with F95L, L170Q
B15: MTSP-1 Q38H/I41S/D60bT/F60eS/Y60gW/D96K/F97G/ins97aV/T98P/F99L/C122S/Q175L/Q192D (enzyme)
chain: B13 chain with F95L, H146G
B16: MTSP-1 protease domain Q38H/I41S/ins97aV/A112V/C122S/Q192A/Q209L (enzyme)
chain: VVGGTDADEGEWPWQVSLHALGHGHSCGASLISPNWLVSAAHCYIDDRGFRYSDPTQWTAFLGLHDQSQRSAPGVQERRLKRIISHPFFNDFVTFDYDIALLELEKPVEYSSMVRPISLPDASHVFPAGKAIWVTGWGHTQYGGTGALILQKGEIRVINQTTCENLLPQQITPRMMCVGFLSGGVDSCAGDSGGPLSSVEADGRIFLAGVVSWGDGCAQRNKPGVYTRLPLFRDWIKENTGV
B17: MTSP-1 protease domain I41S/F97G/ins97aA/T98P/C122S/Q192A (enzyme)
chain: B16 chain with H23Q, F92G, V93A, T94P, V108A, L207Q
B18: MTSP-1 protease domain I41A/F97G/ins97aM/T98L/C122S (enzyme)
chain: B16 chain with H23Q, S26A, F92G, V93M, T94L, V108A, A189Q, L207Q
B19: MTSP-1 protease domain Q38M/I41T/D96M/ins97aH/C122S/G151E (enzyme)
chain: B16 chain with H23M, S26T, D91M, V93H, V108A, G146E, A189Q, L207Q
B20: MTSP-1 protease domain I41S/Y59F/ins97aV/C122S/Q192G/N223D (enzyme)
chain: B16 chain with H23Q, Y44F, V108A, A189G, L207Q, N221D
B21: MTSP-1 protease domain I41A/F97S/ins97aA/C122S (enzyme)
chain: B16 chain with H23Q, S26A, F92S, V93A, V108A, A189Q, L207Q
B22: MTSP-1 protease domain I41S/ins97aV/C122S/N164D/Q192G/R235L (enzyme)
chain: B16 chain with H23Q, V108A, N159D, A189G, L207Q, R233L
B23: MTSP-1 protease domain I41S/D96K/F97G/ins97aV/T98P/F99L/C122S/Q175H/Q192D (enzyme)
chain: B13 chain with H23Q, T47D, S50F, W52Y, F95L, H146G, L170H
B24: MTSP-1 protease domain A35T/I41S/Y59F/ins97aV/C122S/Y146F/V183A/Q192G/R235H (enzyme)
chain: B16 chain with A20T, H23Q, Y44F, V108A, Y142F, V178A, A189G, L207Q, R233H
B25: MTSP-1 protease domain I41A/F97G/ins97aV/T98E/C122S (enzyme)
chain: B16 chain with H23Q, S26A, F92G, T94E, V108A, A189Q, L207Q
B26: MTSP-1 protease domain I41S/D60bY/ins97aV/T98N/C122S/Q192H (enzyme)
chain: B16 chain with H23Q, D47Y, T94N, V108A, A189H, L207Q
B27: MTSP-1 protease domain I41S/D60bY/ins97aV/A112V/C122S/Q192G/Q209L (enzyme)
chain: B16 chain with H23Q, D47Y, A189G
B28: MTSP-1 protease domain Q38H/I41T/D96R/ins97aG/C122S/G151S (enzyme)
chain: B16 chain with S26T, D91R, V93G, V108A, G146S, A189Q, L207Q
B29: MTSP-1 protease domain I41S/D96K/F97G/ins97aV/T98P/F99L/C122S/Q192V (enzyme)
chain: B16 chain with H23Q, D91K, F92G, T94P, F95L, V108A, A189V, L207Q
B30: MTSP-1 protease domain I41S/ins97aV/C122S/Q192V/D217V (enzyme)
chain: B16 chain with H23Q, V108A, A189V, L207Q, D215V
B31: MTSP-1 protease domain I41S/Y59F/F97Y/ins97aV/C122S/Q192G (enzyme)
chain: B16 chain with H23Q, Y44F, F92Y, V108A, A189G, L207Q
B32: MTSP-1 protease domain I41S/Y59F/ins97aV/C122S/Q192A (enzyme)
chain: B16 chain with H23Q, Y44F, V108A, L207Q
B33: MTSP-1 protease domain I41S/ins97aV/C122S/N164D/Q192G/R235H (enzyme)
chain: B16 chain with H23Q, V108A, N159D, A189G, L207Q, R233H
B34: MTSP-1 protease domain I41S/Y59F/D60bY/ins97aV/C122S/Q192G (enzyme)
chain: B16 chain with H23Q, Y44F, D47Y, V108A, A189G, L207Q
B35: MTSP-1 protease domain I41S/F97V/ins97aV/T98P/C122S (enzyme)
chain: B16 chain with H23Q, F92V, T94P, V108A, A189Q, L207Q

Target: plasma purified human complement protein C3 (human) (UniProt P01024)
Sequence (P01024 23-667, chain 1 of 2): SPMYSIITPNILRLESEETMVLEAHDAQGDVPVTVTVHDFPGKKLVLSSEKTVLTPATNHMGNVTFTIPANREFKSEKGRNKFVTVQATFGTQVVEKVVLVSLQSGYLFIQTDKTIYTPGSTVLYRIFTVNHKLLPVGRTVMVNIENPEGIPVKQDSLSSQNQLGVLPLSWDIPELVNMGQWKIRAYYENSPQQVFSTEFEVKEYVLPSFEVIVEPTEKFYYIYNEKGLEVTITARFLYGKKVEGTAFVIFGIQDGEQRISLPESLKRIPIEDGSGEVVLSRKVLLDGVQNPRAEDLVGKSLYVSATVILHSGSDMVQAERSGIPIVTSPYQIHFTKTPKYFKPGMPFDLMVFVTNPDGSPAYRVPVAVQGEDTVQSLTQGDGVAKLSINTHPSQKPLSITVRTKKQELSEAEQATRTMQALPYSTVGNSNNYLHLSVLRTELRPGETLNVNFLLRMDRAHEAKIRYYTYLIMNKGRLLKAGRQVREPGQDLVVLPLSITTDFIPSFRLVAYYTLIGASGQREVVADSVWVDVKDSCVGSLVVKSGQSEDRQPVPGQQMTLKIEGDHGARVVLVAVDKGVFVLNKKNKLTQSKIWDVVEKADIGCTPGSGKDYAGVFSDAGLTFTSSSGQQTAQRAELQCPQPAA
Sequence (P01024 672-1663, chain 2 of 2): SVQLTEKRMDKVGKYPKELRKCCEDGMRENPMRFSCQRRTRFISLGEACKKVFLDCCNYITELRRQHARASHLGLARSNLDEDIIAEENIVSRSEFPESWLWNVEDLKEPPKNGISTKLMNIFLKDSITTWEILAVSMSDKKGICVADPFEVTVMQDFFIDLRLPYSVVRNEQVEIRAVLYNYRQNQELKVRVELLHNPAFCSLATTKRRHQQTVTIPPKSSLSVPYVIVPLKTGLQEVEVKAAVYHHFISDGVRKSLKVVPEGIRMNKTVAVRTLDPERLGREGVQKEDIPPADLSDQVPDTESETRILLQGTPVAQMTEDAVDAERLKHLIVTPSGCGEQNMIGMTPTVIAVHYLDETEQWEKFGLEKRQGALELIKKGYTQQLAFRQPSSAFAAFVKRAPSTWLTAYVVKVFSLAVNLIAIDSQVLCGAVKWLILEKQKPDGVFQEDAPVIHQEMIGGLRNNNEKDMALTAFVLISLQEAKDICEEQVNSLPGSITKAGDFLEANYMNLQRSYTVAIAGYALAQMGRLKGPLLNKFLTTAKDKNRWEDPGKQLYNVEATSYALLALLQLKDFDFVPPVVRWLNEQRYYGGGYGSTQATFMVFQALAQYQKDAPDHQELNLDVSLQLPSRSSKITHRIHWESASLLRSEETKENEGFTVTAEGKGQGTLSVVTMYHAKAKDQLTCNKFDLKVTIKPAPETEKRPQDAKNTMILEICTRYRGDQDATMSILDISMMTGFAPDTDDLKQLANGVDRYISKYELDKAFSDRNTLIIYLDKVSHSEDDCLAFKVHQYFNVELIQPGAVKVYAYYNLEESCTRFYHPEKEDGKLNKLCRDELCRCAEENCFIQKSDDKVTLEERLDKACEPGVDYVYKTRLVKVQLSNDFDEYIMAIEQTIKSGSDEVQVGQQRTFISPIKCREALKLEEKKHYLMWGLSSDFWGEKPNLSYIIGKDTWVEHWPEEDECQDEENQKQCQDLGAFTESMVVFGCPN
Assay: cell-based or functional assay

EC50 hC3 cleavage [nM] | EC50 of hC3 cleavage [nM] | Binder
30.1 | – | B1
62.6 | – | B2
17.5 | – | B3
3.19 | – | B4
11.2 | – | B5
17.4 | – | B6
17.6 | – | B7
27 | – | B8
11.9 | – | B9
247 | – | B10
41.4 | – | B11
53.5 | – | B12
– | 18.3 | B13
– | 19.9 | B14
– | 5.25 | B15
10.9 | – | B16
57.2 | – | B17
40.1 | – | B18

EC50 hC3 cleavage [nM] | EC50 of hC3 cleavage [nM] | Binder
19.1 | – | B19
34.1 | – | B20
19.8 | – | B21
49.7 | – | B22
195 | – | B23
18.4 | – | B24
18.1 | – | B25
8.1 | – | B26
4.76 | – | B27
54.1 | – | B28
32.3 | – | B29
11 | – | B30
29.1 | – | B31
16.6 | – | B32
46.4 | – | B33
5.24 | – | B34
30.9 | – | B35
